# In publication doi:10.1101/2023.05.09.538545v2:
# B1: ecPGA (Escherichia coli penicillin G acylase) (Escherichia coli) (protein)
# chain 1: EQSSSEIKIVRDEYGMPHIYANDTWHLFYGYGYVVAQDRLFQMEMARRSTQGTVAEVLGKDFVKFDKDIRRNYWPDAIRAQIAALSPEDMSILQGYADGMNAWIDKVNTNPETLLPKQFNTFGFTPKRWEPFDVAMIFVGTMANRFSDSTSEIDNLALLTALKDKYGVSQGMAVFNQLKWLVNPSAPTTIAVQESNYPLKFNQQNSQTA
# chain 2: SNMWVIGKSKAQDAKAIMVNGPQFGWYAPAYTYGIGLHGAGYDVTGNTPFAYPGLVFGHNGVISWGSTAGFGDDVDIFAERLSAEKPGYYLHNGKWVKMLSREETITVKNGQAETFTVWRTVHGNILQTDQTTQTAYAKSRAWDGKEVASLLAWTHQMKAKNWQEWTQQAAKQALTINWYYADVNGNIGYVHTGAYPDRQSGHDPRLPVPGTGKWDWKGLLPFEMNPKVYNPQSGYIANWNNSPQKDYPASDLFAFLWGGADRVTEIDRLLEQKPRLTADQAWDVIRQTSRQDLNLRLFLPTLQAATSGLTQSDPRRQLVETLTRWDGINLLNDDGKTWQQPGSAILNVWLTSMLKRTVVAAVPMPFDKWYSASGYETTQDGPTGSLNISVGAKILYEAVQGDKSPIPQAVDLFAGKPQQEVVLAALEDTWETLSKRYGNNVSNWKTPAMALTFRANNFFGVPQAAAEETRHQAEYQNRGTENDMIVFSPTTSDRPVLAWDVVAPGQSGFIAPDGTVDKHYEDQLKMYENFGRKSLWLTKQDVEAHKESQEVLHVQR
# What was measured:
# Experiment in all cases: purified protein
# Assay type in all cases: biochemical, Escherichia coli
# Settings in all cases: 0.05 M phosphate buffer, pH 7.0, 35 °C
# purified protein [1] = substrate: CCCC(=O)CC(=O)N[C@H]1CCOC1=O
# purified protein [2] = substrate: CCCCCCCCCC(=O)N[C@H]1CCOC1=O
# purified protein [3] = substrate: CCCCCC(=O)CC(=O)N[C@H]1CCOC1=O
# purified protein [4] = substrate: CCCCCCCCCC(=O)CC(=O)N[C@H]1CCOC1=O
protein,measurement,setting,value
B1,Km,purified protein [1],510 ± 30 µM
same,kcat,purified protein [1],0.0100 ± 0.0002 s⁻¹
same,Km,purified protein [2],2980 ± 200 µM
same,kcat,purified protein [2],0.0045 ± 0.0004 s⁻¹
same,Km,purified protein [3],880 ± 40 µM
same,kcat,purified protein [3],0.0077 ± 0.0004 s⁻¹
same,Km,purified protein [4],2500 ± 100 µM
same,kcat,purified protein [4],0.0043 ± 0.0002 s⁻¹
